Consider four compounds from paper PMC7861197 (Molecular pharmaceutics, 2020).

Data set [1] can be described thus: FTC concentrations in rat tissues by LC-MS/MS. The note with it: for concentration at 4 h: male, Sprague Dawley, rat, iv. In kind it is in vivo, Sprague Dawley rats.
Data set [2] relates to human PBMCs. The following applies: 24 h incubation at 10 ug/mL FTC, normalized to soluble protein.
The conditions of data set [3]: rat axillary lymph nodes, 4 h post dose.
Data set [4] can be described thus: Plasma pharmacokinetics of PLS-FTC vs FTC in rats.
Data set [5] relates to wild-type RAW 264.7 cells. Briefly: Flow cytometry of PLS-488 uptake, wild-type RAW 264.7 cells. Type of data set: cell-based, murine. The following applies: wild-type RAW 264.7, 24 h incubation. In general terms: In flow cytometry, cells or beads pass a laser one at a time.
Data set [6] relates to SR-A1 deficient RAW 264.7 derivative cell line (Clone 1/2). Briefly: Flow cytometry of PLS-488 uptake, SR-A1 deficient Clone 1/2. Type of data set: cell-based, murine. The following applies: SR-A1 deficient Clone 1/2, 24 h incubation.
Data set [7] has as its system wild type Raw 264.7 cells. Briefly: Confocal microscopy of PLS-488 uptake, wild type RAW 264.7 cells. In kind it is cell-based, murine.
In data set [8] the test system is SR-A1 knockout Raw 264.7 cells (clone 1/2). Briefly: Confocal microscopy of PLS-488 uptake, SR-A1 deficient RAW cells. The following applies: SR-A1 deficient RAW cell line. Type of data set: cell-based, murine.
Data set [9] can be described thus: Lymph node distribution of PLS-488 in mice, anti-Alexa488 immunohistochemistry. Type of data set: in vivo, C57BL/6 mice. The note with it: 6 h and 24 h.
The nature of data set [10]: In vitro drug release in human plasma with or without esterase inhibitor PMSF. The note with it: PMSF-treated vs untreated human plasma.
Data set [11] deals with T1, scavenger receptor A (SR-A) (Mus musculus, UniProt P30204).
T1 sequence (P30204 1-458): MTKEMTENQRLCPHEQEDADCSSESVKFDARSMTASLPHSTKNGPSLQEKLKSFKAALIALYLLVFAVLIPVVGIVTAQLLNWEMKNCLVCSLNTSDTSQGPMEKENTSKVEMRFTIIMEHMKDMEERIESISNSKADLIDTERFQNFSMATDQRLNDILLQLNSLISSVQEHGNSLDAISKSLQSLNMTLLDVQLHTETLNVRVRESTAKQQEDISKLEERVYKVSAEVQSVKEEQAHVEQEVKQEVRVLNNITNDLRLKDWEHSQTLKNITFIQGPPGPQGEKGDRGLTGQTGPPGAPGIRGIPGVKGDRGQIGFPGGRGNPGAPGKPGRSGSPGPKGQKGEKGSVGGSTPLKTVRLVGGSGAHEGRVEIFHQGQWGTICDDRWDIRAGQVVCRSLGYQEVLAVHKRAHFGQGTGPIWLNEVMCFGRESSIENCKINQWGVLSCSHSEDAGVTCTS
Briefly: Scavenger receptor A competitive inhibition studies in RAW 264.7 cells. In kind it is cell-based, murine. The following applies: RAW 264.7, 3 h co-treatment, 200 μg/mL poly I or poly C, PLS-488 4.22 ng/mL to […] (Figure 2A).

Where [12] appears, read: male, Sprague Dawley, rat, plasma, iv, 10 mg/kg.
Where [13] appears, read: rats, 4 h post i.v. injection, 10 mg FTC equivalents/kg, mean ± SD, n=3.
Where [14] appears, read: FTC in plasma, rats, i.v. bolus 10 mg FTC equivalents/kg, mean ± SD (n=8).
Where [15] appears, read: rats, i.v. bolus 10 mg FTC equivalents/kg.

`Nc1nc(=O)n([C@@H]2CS[C@H](CO)O2)cc1F` [FTC, Emtricitabine, reference compound]: the concentration at 4 h in data set [1] (axillary lymph node, 10 mg FTC equivalents/kg) was determined as 109 ± 37 ng/g. Further, the concentration at 4 h in data set [1] (inguinal lymph node, 10 mg FTC equivalents/kg) came to 87 ± 51 ng/g. Moreover, the concentration at 4 h in data set [1] (liver, 10 mg FTC equivalents/kg) amounted to 119 ± 51 ng/g. Further, in [1] (popliteal lymph node, 10 mg FTC equivalents/kg), the concentration at 4 h is 105 ± 64 ng/g. For the same compound, in [1] (spleen, 10 mg FTC equivalents/kg), the concentration at 4 h stood at 106 ± 44 ng/g. The “FTC concentration in PBMCs” value in data set [2] was found to be 182 ± 18 ng/mg protein. In addition, in data set [3], the “FTC signal abundance (IR-MALDESI MSI)” value came out at 18.5 ± 16.6 arbitrary units and the frequency of detection is on record as 2.9 ± 2.8 % of sampling locations with measurable drug. In [4] (setting [12]), this compound came in with an AUC of 6400 ± 1010 ng·h/mL, a C0 of 10600 ± 2950 ng/mL, a Cmax of 5850 ± 853 ng/mL and an MRT of 1.8 ± 0.32 h. For the same compound, in data set [4] (setting [12]), the Vd was 2.94 ± 1.09 L/kg, the clearance was 26.7 mL/min/kg and the half-life is 14.1 ± 5.17 h.

For the compound “AlexaFluor488-labelled poly(L-lysine succinylated) [PLS-488]”, the “uptake of PLS-488 by flow cytometry” value in data set [5] is “uniform uptake”; in [6], “no uptake”. Further, the “PLS-488 uptake by confocal microscopy” value was “uptake was observed at the earliest 0.5 h time point” in data set [7] (wild type Raw 264.7, 1 μg/mL, 0.5 h) and “greatly reduced PLS-488 uptake” in data set [8]. Besides, in [7] (wild type vs SR-A1 deficient Raw cells, 1 μg/mL, 24 h), the “PLS-488 fluorescence signal after 24 h treatment” value is on record as “markedly greater in the wild type Raw 264.7 cells than the SR-A1 deficient Raw cells”. Also, the “accumulation in lymph nodes (IHC)” value in data set [9] (intradermal injection into foot pads) is “robust accumulation of PLS-488 in regions of the draining (popliteal) and peripheral (axillary and inguinal) lymph nodes”; in [9] (intravenous tail vein injection), “early accumulation of PLS-488 into myeloid-rich regions of the deep mesenteric lymph nodes by 6 h, with later accumulation in peripheral lymph nodes”.

For “poly(L-lysine succinylated) FTC prodrug [PLS-FTC]”, in [1] (setting [13]), the “FTC concentration in axillary lymph node” value was determined as 811 ± 65 ng/g, the “FTC concentration in inguinal lymph node” value worked out at 587 ± 56 ng/g, the “FTC concentration in liver” value is 2,257 ± 143 ng/g and the “FTC concentration in mesenteric lymph node” value came to 850 ± 540 ng/g. Also, in data set [1] (setting [13]), the “FTC concentration in popliteal lymph node” value is given as 864 ± 330 ng/g and the “FTC concentration in spleen” value is given as 1,788 ± 164 ng/g. Further, the “fold higher concentrations in lymphatic tissues compared to free FTC control” value in [1] (rats, 4 h post injection, lymph nodes, liver, spleen) is reported as 7 to 19 fold. For the same compound, the “FTC concentration in LN inguinal at 24 h” value in data set [1] (rats, 24 h after i.v. bolus) is reported as “below limit of quantitation”. In addition, in data set [10], the “prolongation of release half-life in PMSF-treated plasma” value was ~ 2 fold. In addition, in data set [4] (setting [14]), the AUCall was 11100 ± 3281 ^* h*ng/mL, the C0 is 4901 ± 3621 ng/mL, the Cl is 17.55 ± 10.3 mL/min/kg and the Cmax turned out to be 3839 ± 1734 ng/mL. In [4] (setting [14]), the MRT worked out at 3.64 ± 0.47 h, the T1/2 is 6.99 ± 2.62 h and the Vss was determined as 3.816 ± 2.254 L/kg. In data set [4] (setting [15]), the “fold higher area under the concentration-time curve vs FTC control” value turned out to be 2 fold, the “fold higher mean residence time vs FTC control” value was found to be 2 fold, the “fold lower concentration time zero vs FTC control” value was found to be 2 fold and the “fold lower half-life vs FTC control” value is 2 fold.

With “poly(cytidylic acid) potassium salt [poly C]”, the “inhibition of PLS-488 binding to macrophages” value in data set [11] was “not with the control polymer poly C”.

What is called AUC is concentration integrated over time. Read a high AUC as high exposure. For orientation: Cmax means the maximum level reached in the sampled fluid or tissue. As usually defined, the MRT is the average time that molecules of a dose stay in the body. In general, Vd refers to the apparent volume that relates the amount in the body to the concentration in plasma or blood. Lower therefore signals confinement near the circulation. What is called clearance is the volume of plasma or blood freed of the substance per unit of time. In general, half-life refers to the time in which the quantity being followed falls by half. In general, Vss refers to the apparent volume that relates the amount in the body to the concentration in plasma or blood.
